Measured values as given in patent publication US20250034266A1 (ZAI LAB SHANGHAI, published 2025).
Read-outs that look alike come from different tables or passages of the source. One block for each binder: values may come before it.

How the values were obtained:
[1] = target: T1, human CCR8 (human, UniProt P51685 1-355); assay: FACS on HEK293-human CCR8 cells
T1 construct: whole, on cells; also called hCCR8
Procedure: (§1) A total of 5×10⁴ cells for each well were seeded in 96-well plates and washed with FACS buffer (DPBD containing 1.5% FBS) for once. Antibodies were prepared with 3-fold serial dilution ranging from 100 nM to 0.0017 nM in FACS buffer. Cells were incubated with 50 μL of diluted antibodies at 4° C. for 1 hour. […] After primary antibody incubation, cells were washed for 3 times by FACS buffer. Then, cells were stained by Alexa Flu647 labeled anti-human IgG secondary antibody (Jackson ImmunoResearch, #109606170) or Alexa Flu647 labeled anti-mouse IgG secondary antibody (Jackson ImmunoResearch, #115605072) at 1:600 dilution in FACS buffer for 0.5 hour at 4° C. After washed for 3 times, Flow cytometry was performed to measure the binding.

[2] = target: T2, cynomolgus CCR8 (cynomolgus, UniProt G7NYJ2 1-355); assay: FACS on HEK293-cynomolgus CCR8 cells
T2 construct: whole, on cells
T2 sequence (G7NYJ2 entry or part of it): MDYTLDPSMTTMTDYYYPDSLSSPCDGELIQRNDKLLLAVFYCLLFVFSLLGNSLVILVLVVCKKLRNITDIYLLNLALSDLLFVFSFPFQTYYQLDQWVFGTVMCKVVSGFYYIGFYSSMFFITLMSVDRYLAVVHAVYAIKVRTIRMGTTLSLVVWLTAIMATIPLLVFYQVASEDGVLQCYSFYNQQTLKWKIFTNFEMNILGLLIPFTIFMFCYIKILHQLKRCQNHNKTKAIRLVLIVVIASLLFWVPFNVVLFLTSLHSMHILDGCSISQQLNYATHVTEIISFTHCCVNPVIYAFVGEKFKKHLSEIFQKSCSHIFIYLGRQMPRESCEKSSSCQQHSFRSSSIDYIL
Procedure: as §1

[3] = target: T1, human CCR8; assay: cell-based or functional assay
[4] = target: T1, human CCR8; assay: FACS, competition with AF647-human CCL1 on CHO-K1-human CCR8 cells
[5] = target: T1, human CCR8; assay: as above; remark: listed apart in the source
[6] = target: T2, cynomolgus CCR8; assay: FACS on ExpiCHO-S-cynomolgus CCR8 cells
[7] = target: T1, human CCR8; assay: FACS on HEK293-human CCR8 cells; remark: listed apart in the source
[8] = target: T1, human CCR8; assay: FACS, competition with AF647-human CCL1 on CHO-K1-human CCR8 cells; remark: listed apart in the source
Procedure: (§2) Antibodies were prepared with 3-fold serial dilution ranging from 200 nM to 0.01 nM in FACS buffer. Then, cells were washed by FACS buffer for three times after incubation. […] FlowJo software was used for analysis. Data was plotted as the logarithm of antibody concentration versus mean fluorescence signals. IC₅₀ values were determined in GraphPad Prism 8 (GraphPad Software) using a log(agonist) vs. response-Variable slope (4 parameters) curve fit.

[9] = target: T1, human CCR8; assay: FACS, competition with AF647-human CCL1 on HEK293-human CCR8 cells
Procedure: as §2

[10] = target: T1, human CCR8; assay: cell-based or functional assay; remark: listed apart in the source
[11] = target: T2, cynomolgus CCR8; assay: FACS on HEK293-cynomolgus CCR8 cells; remark: listed apart in the source
Procedure: (§3) Binding affinities of NG site removed antibodies were determined on human CCR8 and cynomolgus CCR8 overexpression cells. Briefly, CFSE labeled HEK293-human CCR8 cells or CFSE labeled HEK293-cynomolgus CCR8 cells were mixed with HEK293 cells. The mixed ratio was 1:1. A total of 5×10⁴ mixed cells for each well were seeded in 96-well plates and washed by FACS buffer (DPBS containing 1% FBS) once. Cells were incubated by serial diluted purified hybridoma antibodies for 1 hour at 4° C. Antibodies were prepared with 3-fold serial dilution ranging from 100 nM to 0.0017 nM or from 25.3165 nM to 0.0004 nM in FACS buffer. […] After primary antibody incubation, cells were washed by FACS buffer for three times. Then, cells were stained with secondary antibody (Alexa Flu647-conj gated rabbit anti-mouse IgG, Jackson ImmunoResearch, #315606046) at 1:600 dilution in FACS buffer, incubated for 0.5 hour at 4° C. […] FlowJo software was used for analysis. Data was plotted as the logarithm of antibody concentration versus mean fluorescence signals. EC₅₀ values were calculated in GraphPad Prism 8 (GraphPad Software) using a log (agonist) vs. response-Variable slope (4 parameters) curve fit.

[12] = target: T1, human CCR8; assay: FACS on HEK293-human CCR8 cells; remark: listed apart in the source
Procedure: as §3

[13] = target: T1, human CCR8; assay: FACS, competition with AF647-human CCL1 on CHO-K1-human CCR8 cells; remark: listed apart in the source
Procedure: Blocking curves were generated to rank the blocking activities of PTM sites removed antibodies. Briefly, a total of 5×10⁴ CHO-K1-human CCR8 cells for each well were seeded in 96-well plate. Cells were incubated by series diluted purified hybridoma antibodies and 4 nM AF647 labeled human CCL1 (Almac, #CAF-07) for 1 hour at 4° C. Antibodies were prepared with 3-fold serial dilution ranging from 100 nM to 0.0051 nM in FACS buffer. Then, cells were washed by FACS buffer for three times after incubation. […] FlowJo software was used for analysis. Data was plotted as the logarithm of antibody concentration versus mean fluorescence signals. IC₅₀ values were determined in GraphPad Prism 8 (GraphPad Software) using a log(agonist) vs. response-Variable slope (4 parameters) curve fit.

[14] = target: T1, human CCR8; assay: FACS of purified scFv on CHO-K1-human CCR8 cells

T1 sequence (P51685 whole entry): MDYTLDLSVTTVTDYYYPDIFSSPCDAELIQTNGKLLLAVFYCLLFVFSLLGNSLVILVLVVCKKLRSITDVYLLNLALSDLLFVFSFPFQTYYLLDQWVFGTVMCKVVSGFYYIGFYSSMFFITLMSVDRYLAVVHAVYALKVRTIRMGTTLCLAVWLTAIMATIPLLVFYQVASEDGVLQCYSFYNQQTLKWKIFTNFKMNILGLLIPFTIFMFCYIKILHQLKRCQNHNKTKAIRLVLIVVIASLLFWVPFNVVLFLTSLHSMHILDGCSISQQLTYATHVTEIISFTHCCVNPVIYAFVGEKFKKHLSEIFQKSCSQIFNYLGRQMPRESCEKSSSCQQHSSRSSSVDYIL

B3: 204A2G12 (antibody, V domains shown)
VH: DVQLQESGPGLVKPSQSLSLTCSVTGYSITSGYYWNWIRQFPGNKLEWMGYISYDGTNNYNPSLKNRISITRDTSKNQFFLKLTSVTTEDTATYYCARQVGLRRAWFAYWGQGTLVTVSA
VL: DIQMTQSSSFLSVSLGGRVTITCKASDHINYWLAWYQQKPGNAPRLLISGATSLETGVPSRFSGSGSGKDYTLTITSLQNEDVATYYCHQYWSTPTFGSGTKLEIK
notes: purified murine hybridoma antibody
- IC50 [8]: 2.73 nM
- Max Inhibition (%) [8]: 95%
- IC50 [9]: 1.64 nM
- Max Inhibition (%) [9]: 87.6%
- IC50, inhibition of CCL1 induced β-Arrestin recruitment [10]: 1.7 nM
- Max Inhibition (%), CCL1 induced β-Arrestin recruitment [10]: 30.9%

B4: 149F2C10 (antibody, V domains shown)
VH: EVQLVESGGGLVQPKGSLKLSCAASGFTFNTYAMNWVRQAPGKGLEWVARIRSKSNFYATYYADSVKDRFTISRDDSQDMLYLQMNILKTEDTAIYYCVRGRDYGSSYAMDYWGQGTSVTVSS
VL: DIVMTQAAPSVPVTPGESVSISCRSSKSLLHSNGNTYLYWFLQRPGQSPQLLIYRMSNLASGVPDRFSGSGSGTAFTLRISRVEAEDVGVYYCMQHLEYPLTFGAGTKLELK
notes: as for B3
- IC50 [8]: 0.917 nM
- Max Inhibition (%) [8]: 98%
- EC50 [11]: 0.145 nM
- Max MFI [11]: 3440 MFI
- IC50 [9]: 0.733 nM
- Max Inhibition (%) [9]: 96.4%
- EC50 [12]: 0.173 nM
- Max MFI [12]: 1930 MFI
- IC50, inhibition of CCL1 induced β-Arrestin recruitment [10]: 0.61 nM
- Max Inhibition (%), CCL1 induced β-Arrestin recruitment [10]: 32%
- IC50 [13]: 0.97 nM
- Max Inhibition (%) [13]: 79.4%

B5: 149-9 scFv (WT) (scFv)
scFv: EVQLVESGGGLVQPGGSLKLSCAASGFTFNTYAMNWVRQASGKGLEWVGRIRSKSNFYATAYAASVKGRFTISRDDSKNTAYLQMNSLKTEDTAVYYCTRGRDYGSSYAMDYWGQGTLVTVSSGGGGSGGGGSGGGGSDIVMTQSPLSLPVTPGEPASISCRSSKSLLHSNANTYLYWFLQKPGQSPQLLIYRMSNLASGVPDRFSGSGSGTDFTLKISRVEAEDVGVYYCMQHLEYPLTFGGGTKVELK
notes: VH-VL format with (G4S)3 linker
- GeoMean AF647 (RL1-H) of CHO-K1-human CCR8 / GeoMean AF647 (RL1-H) in H12(NC) [14]: 2.2

The remaining lines, values ahead:

- EC50 [1]: 0.0518 nM
- Max MFI [1]: 7470 MFI
- EC50 [2]: 0.081 nM
- Max MFI [2]: 26500 MFI
- EC50, ADCC with human PBMC [3]: 0.002 nM
- Max specific lysis (%), ADCC with human PBMC [3]: 8.76%
- IC50 [4]: 0.137 nM
- Max Inhibition (%) [4]: 99.5%
B1: Hu149-4 (antibody, human IgG1, V domains shown)
VH: EVQLVESGGGLVQPGGSLKLSCAASGFTFNTYAMNWVRQASGKGLEWVGRIRSKSNFYATYYAASVKGRFTISRDDSKNTAYLQMNSLKTEDTAVYYCTRGRDYGSSYAMDYWGQGTLVTVSS
VL: DIVMTQSPLSLPVTPGEPASISCRSSKSLLHSNANTYLYWFLQKPGQSPQLLIYRMSNLASGVPDRFSGSGSGTDFTLKISRVEAEDVGVYYCMQHLEYPLTFGGGTKVELK
notes: humanized, human IgG1; also called Hu149-4 HuIgG1

- IC50 [5]: 0.17 nM
- Max Inhibition (%) [5]: 96.4%
- EC50 [6]: 65.3 nM
- Max MFI [6]: 238 MFI
- EC50 [7]: 0.091 nM
- Max MFI [7]: 5050 MFI
- EC50, ADCC with human PBMC [3]: 0.41 nM
- Max specific lysis (%), ADCC with human PBMC [3]: 13.1%
B2: CM348 (antibody, V domains shown)
VH: QVQLVETGGGLVRPGNSLKLSCVTSGFSFSNYRMHWLRQPPGKRLEWIAVITVKSDNYGANYAESVKGRFTISRDDSKSSVYLQMNRLREEDTATYYCSSLGRVAYWGQGTLVTVSA
VL: DIVMTQSQKFMFTSVGDRVSVTCKASQNVDTNVVWYQQKPGQSPKALIYSASSRYSGVPDRFTGSGSGTDFTLTISNVQSEDLAEYFCQQHNSFPLTFGAGTKLELI
notes: CM348 is not defined in words; also called CM348 HuIgG1; parental antibody CM348
